Eleven molecules from US12559745B2, “Methods and compositions for linking RNA stem loops” (THE REGENTS OF THE UNIVERSITY OF CALIFORNIA, priority 2020, dated 2026) can be followed below.

“And” between values parts separate entries of the source, which are not always exact repeats. Equal values may be shown once. “Also recorded” adds a separate entry of the source.

Data set [1] in a line: In vitro photo-cleavage (uncaging) assay, LED irradiation followed by denaturing PAGE. In kind it is physicochemical.
Data set [2] has as its system 60 bp DNA substrate containing the sgRNA-9 target sequence. Put plainly: In vitro binding assay, Cas9-sgRNA-DNA ternary complex formation (native PAGE). The conditions noted are these: pre-formed RNP plus 20 nM DNA substrate, 37° C., 90 seconds; 5% native TBE-PAGE.
For a further data set, the target named is T1, Cas9 protein (Streptococcus pyogenes serotype M1, UniProt Q99ZW2).
T1 construct: purchased NEB M0646T
The data set is described as follows: In vitro binding assay, Cas9-sgRNA RNP formation (gel shift, native PAGE). The conditions noted are these: 200 nM Cas9, 200 nM sgRNA.

The subject of a further data set is DYRK1A genome locus. Put plainly: CRISPR-Cas9 gene editing in Cas9-expressing HEK-293 cells, INDEL rate by Sanger sequencing / ICE tool. Type of data set: cell-based. As to conditions: for gene editing activity (INDEL rate) of unmodified sgRNA: unmodified (linear) sgRNA with Tag sequence(s), transfected into Cas9-expressing HEK-293 cells, compared with wild-type sgRNA. An excerpt:
We asked whether RNA-CLAMP could be used to control CRISPR-Cas9 editing via cyclization of the sgRNA. The sgRNA is highly structured when in complex with dCas9 and target DNA, forming three stem loops and one tetraloop, with some of the stem loops being tolerant to mutations.^[18] A sgRNA contains four stem-loops and two free ends (FIGS. 3A and 3B). We screened the 17-nt Tag recognition sequence (GCAGACUGUAAAUCUGC) (SEQ ID NO:1) at all 6 potential labeling sites within the sgRNA: insertion at the 5′-end (sgRNA-1) or 3′-end (sgRNA-6) and substituting the 17-nt Tag stem loop for either the tetra loop (sgRNA-2), stem loop 1 (sgRNA-3), stem loop 2 (sgRNA-4) or stem loop 3 (sgRNA-5) (FIG. 12). All the sgRNAs target the DYRK1A genome locus.^[32] To screen for activity, we transiently transfected the sgRNAs into HEK-293 cells stably expressing Cas9 protein. Three days after transfection, genomic DNA was harvested and the sgRNA targeted region was amplified by PCR. Sanger sequencing results were analyzed using the ICE tool to determine the INDEL rate, which is representative of the gene editing efficiency of the sgRNA.^[33]
To obtain optimal gene editing efficiency, we examined different Cas9 delivery approaches, including transfection or electroporation of Cas9 vector or mRNA, electroporation of Cas9-sgRNA RNP complex and sequential transfection of Cas9-mRNA and sgRNA. The gene editing efficiency varies from 20% INDEL to 80% INDEL with different delivery strategies. We constructed an engineered mammalian single-colony HEK-293 cell line that stably expresses Cas9 enzyme using the lentiviral approach. To quantify the activity of sgRNA, we delivered sgRNA1 to sgRNA6 into the HEK-293-Cas9 cells using lipofectamine RNAiMAX. One day after transfection, culturing medium was exchanged with fresh full-growth medium (DMEM with 10% FBS). Three days after transfection, genomic DNA was extracted from the cells, following by PCR amplification of the sgRNA targeted region. The PCR amplified DNA fragments were further analyzed by either the T7E1 nuclease digestion assay or by Sanger sequencing to quantify gene knockouts efficiency of the targeted region.^25,26 […]
Gene editing experiments were performed following previously reported protocols.^[2] For gene editing experiments using HEK-293-Cas9 cell line, 250 ng sgRNA and 0.5 μL Lipofectamine RNAiMAX were used to form the Lipo-RNA complex. The formed complex was added with 150 μL DMEM (10% FBS) containing 40K HEK-293-Cas9 cells. The transfection was performed in a 96-well plate format. 24 hours after transfection, cell medium was changed to complete DMEM medium. At day 4, genomic DNA was extracted using 80 μL QuickExtract™ DNA Extraction Solution (Lucigen, catalog number: QE09050). Following the manufacturer's protocol, the extraction solution was heated at 65° C. for 15 minutes and then at 95° C. for another 15 minutes. The resulting solution was diluted using water at a 1:10 ratio. The diluted product was directly used as a template for PCR amplification of the genomic region. For PCR amplification of the genomic region, Q5 HOTSTART HIFI DNA polymerase 2× master mix was used following the manufacturer's protocol without further optimization. The primers used for amplifying the DYRK1A and GRIN2B genome locus are listed below.
Crude PCR products were column purified using a Zymo DNA purification kit. The purified PCR amplicon was analyzed by Sanger sequencing to estimate INDEL % using the ICE tool.^[3] The wt-sgRNA gene editing INDEL % was usually around 70-80% following this protocol.

The subject of a further data set is HEK-293 cells. Put plainly: Gene editing in HEK-293 wild-type cell line with Cas9 mRNA transfected one day before sgRNA. Type of data set: cell-based. The conditions noted are these: HEK-293 wild-type cells, Cas9 mRNA transfection; usual value. The method, then: For gene editing experiments performed using a HEK-293 wild-type cell line, mRNA encoding the Cas9 protein (Trilink, catalog number L-7206-20) was transfected into HEK-293 cells one day prior to sgRNA transfection. For mRNA transfection, Lipo-RNA complex was formed by using 500 ng mRNA, 0.9 μL Lipofectamine RNAiMAX in 50 μL total volume, combined with 150 μL DMEM complete medium containing 40K HEK-293 cells. At day 2, sgRNA transfection was performed following the protocol described in the previous section. The wt-sgRNA gene editing INDEL % was usually around 40-50% following this protocol.

In the case of `COc1cc(C(C)OC(=O)NCCCCCCNCc2c[nH]c3nc(N)[nH]c(=O)c23)c([N+](=O)[O-])cc1OCCCC(=O)NCCOCCOCCOCCOCc1cn(CC(=O)NCCCCCCNCc2c[nH]c3nc(N)[nH]c(=O)c23)nn1` (stereo not drawn) [preQ1-NB-preQ1], in data set [1], the “wavelength of light that photo-cleaves the linker” value was 356-390 nm and 390 nm.

For the molecule “sgRNA-12: sgRNA targeting the sequence between the mCherry and GFP genes of the surrogate reporter, SEQ ID NO:40 (guide GTTCAGGGCTTGACCAACAC; listed as DNA, chemistry not fully specified)”, in data set [2], the “formation of Cas9-sgRNA-DNA ternary complex” value is “no Cas9-sgRNA-DNA complex was observed”.

As for `CCN(CC)c1ccc2c(C(CCCn3cc(COCCC(=O)NCCCCCCNCc4c[nH]c5nc(N)[nH]c(=O)c45)nn3)OC(=O)NCCCCCCNCc3c[nH]c4nc(N)[nH]c(=O)c34)cc(=O)oc2c1` (stereo not drawn) [preQ1-DEACM-preQ1], in data set [1], the “wavelength of light that photo-cleaves the linker” value is given as 405-456 nm.

B1: sgRNA-9: sgRNA-7 with Tag stems truncated by 4 base pairs, SEQ ID NO:17; targets DYRK1A (nucleic acid)
guide: NNNNNNNNNNNNNNNNNNNNGTTTTAGAGCTAACTGTAAATTAGCAAGTTAAAATAAGGCTAGTCCGTTATCAACTTACTGTAAATAAGTGGCACCGAGTCGGTGC
modifications: chemistry not given here
notes: targets DYRK1A
Regarding B1, the “formation of Cas9-sgRNA RNP” value with Cas9 protein is listed as “observed; also recorded: detected in lane 4”. In addition, the “formation of Cas9-sgRNA-DNA ternary complex” value in data set [2] is “observed the formation of the Cas9-sgRNA-DNA ternary complex; also recorded: detected in lane 5”.

B2: sgRNA-5: sgRNA with 17-nt Tag stem loop substituted for stem loop 3, SEQ ID NO:13 (nucleic acid)
guide: NNNNNNNNNNNNNNNNNNNNGTTTTAGAGCTAGAAATAGCAAGTTAAAATAAGGCTAGTCCGTTATCAACTTGAAAAAGTGGCACCGAGCAGACTGTAAATCTGCTCGGTGC
modifications: listed as DNA, chemistry not given here
Consider B2, for which the “gene editing activity (INDEL rate) of unmodified sgRNA” value (“gene editing activity (INDEL rate)” below) in the data set with DYRK1A genome locus is “significantly reduced activity”.

B3: sgRNA-7: sgRNA with two Tag sequences inserted at both the tetraloop and stem loop 2, SEQ ID NO:15 (nucleic acid)
guide: NNNNNNNNNNNNNNNNNNNNGTTTTAGAGCTAGCAGACTGTAAATCTGCTAGCAAGTTAAAATAAGGCTAGTCCGTTATCAACTTGCAGACTGTAAATCTGCAAGTGGCACCGAGTCGGTGC
modifications: listed as DNA, chemistry not given here
For B3, in the data set with DYRK1A genome locus (HEK-293 cells, clamped with preQ1-PEG10-preQ1 and gel purified, versus unmodified (linear) form), the INDELs is reported as 80.7%. Also, the “gene editing activity (INDEL rate)” value with DYRK1A genome locus is on record as “wild-type level gene editing activity; also recorded: did not compromise gene editing activity”. Besides, the “integrity of unlabeled sgRNA under 456 nm irradiation” value in data set [1] (456 nm LED, 3 minutes) is recorded as “harmless to the integrity”.

B4: wt-sgRNA: wild-type single-guide RNA, SEQ ID NO:8 (nucleic acid)
guide: CTAATACGACTCACTATANNNNNNNNNNNNNNNNNNNNGTTTTAGAGCTAGAAATAGCAAGTTAAAATAAGGCTAGTCCGTTATCAACTTGAAAAAGTGGCACCGAGTCGGTGCTTTTTT
modifications: target site or template, no part of the molecule; listed as DNA, chemistry not given here
Turning to B4, the “gene editing INDEL %” value in the data set on DYRK1A genome locus (HEK-293-Cas9 cell line protocol, usual value) was 70-80%; in the data set on HEK-293 cells, 40-50%.

B5: sgRNA-3: sgRNA with 17-nt Tag stem loop substituted for stem loop 1, SEQ ID NO:11 (nucleic acid)
guide: NNNNNNNNNNNNNNNNNNNNGTTTTAGAGCTAGAAATAGCAAGTTAAAATAAGGCGCAGACTGTAAATCTGCGTCCGTTATCAACTTGAAAAAGTGGCACCGAGTCGGTGC
modifications: listed as DNA, chemistry not given here
Take B5: the “gene editing activity (INDEL rate)” value in the data set with DYRK1A genome locus is recorded as “significantly reduced activity”.

B6: sgRNA-2: sgRNA with 17-nt Tag stem loop substituted for the tetra loop, SEQ ID NO:10 (nucleic acid)
guide: NNNNNNNNNNNNNNNNNNNNGTTTTAGAGCTAGCAGACTGTAAATCTGCTAGCAAGTTAAAATAAGGCTAGTCCGTTATCAACTTGAAAAAGTGGCACCGAGTCGGTGC
modifications: listed as DNA, chemistry not given here
Regarding B6, the “gene editing activity (INDEL rate)” value with DYRK1A genome locus is given as “wild-type level gene editing activity; also recorded: retained wild-type level activity”.

B7: sgRNA-4: sgRNA with 17-nt Tag stem loop substituted for stem loop 2, SEQ ID NO:12 (nucleic acid)
guide: NNNNNNNNNNNNNNNNNNNNGTTTTAGAGCTAGAAATAGCAAGTTAAAATAAGGCTAGTCCGTTATCAACTTGCAGACTGTAAATCTGCAAGTGGCACCGAGTCGGTGC
modifications: listed as DNA, chemistry not given here
As to B7, the “gene editing activity (INDEL rate)” value with DYRK1A genome locus is given as “wild-type level gene editing activity; also recorded: retained wild-type level activity”.

B8: sgRNA-1: sgRNA with 17-nt Tag inserted at the 5′-end, SEQ ID NO:9 (nucleic acid)
guide: GCAGACTGTAAATCTGCTTTTNNNNNNNNNNNNNNNNNNNNGTTTTAGAGCTAGAAATAGCAAGTTAAAATAAGGCTAGTCCGTTATCAACTTGAAAAAGTGGCACCGAGTCGGTGC
modifications: listed as DNA, chemistry not given here
B8: the “gene editing activity (INDEL rate)” value in the data set with DYRK1A genome locus is listed as “significantly reduced activity”.
